Experimental data taken from article PMC7509637 (Advanced Science, 2020).
Values joined by “and” are separate entries in the source; they are usually repeats but may differ in a detail not shown here. Equal entries are not always repeated.

Key:
Aβ [1] = molecular target: T1, Aβ (Homo sapiens, UniProt P05067); test: Circular dichroism spectroscopy, secondary structure; settings: 37 °C, CD; for β-sheet content: Contin/reference set 4, n = 3; for random coil content: n = 3
T1 construct: purchased Anaspec Inc
Protocol: Solutions of 200 µL, at similar molar ratios as for ThT assay, were prepared and incubated at 37 °C. CD spectra for different samples at 0, 12 and 48 h were measured with a CD spectrophotometer (Jasco) from 190 to 240 nm (1 nm step size). The percentage secondary structure was calculated by the CD data via Dichroweb analysis with parameters of Contin/reference set 4.^[ ^95 ^]

Aβ [2] = molecular target: T1, Aβ; test: ThT assay of Aβ with P. aeruginosa biofilm fragments; format: biochemical; settings: Aβ 50 × 10^−6 M ± biofilm fragments 5 × 10^−6 M (protein content), 37 °C, Figure S14
Protocol: P. aeruginosa biofilm fragments were generated by incubating fresh subcultures of bacteria (wild‐type reference strain PAO1) in cation‐adjusted Mueller‐Hinton broth (CAMHB) overnight in a 96‐well plate. After 48 h of incubation, the planktonic bacteria were pipetted out from the culture and replaced with fresh PBS (pH 7.4). The surface pellicle biofilm and ring biofilm attached to the well walls were scooped out and dispersed in PBS. The separated biofilm chunks were purified from the embodied bacteria by vortexing (10 min) with 20 µm glass beads and then repeated centrifugal washing (3 min, 2000 g) with PBS (pH 7.4). The biofilm containing supernatant was collected, concentrated, and adjusted to the concentration of 5 mg mL^−1 in deionized water. The concentration was adjusted with respect to the protein contents of biofilm via the BCA assay. […]
Aβ (Anaspec Inc., purity ≥ 95%) was dissolved in 100 µL of hexafluoro‐2‐propanol (HFIP) and incubated at room temperature for 3 h. […] The ThT fluorescence (excitation: 445 nm/ emission: 485 nm) was recorded at specified time intervals for 50 h. Kinetic parameters (rate constant k, half‐life t 1/2 and lag‐time) were calculated as described.^[ ^94 ^] Briefly, kinetic curves were fitted to a sigmoidal curve =y0+ymax−y0/1+e^−(t−t1/2)k , where y 0 and y max are initial and final ThT fluorescence values, allowing us to calculate lag time = t 1/2 − 2/k.

Substance: amyloid beta [Aβ]
- β-sheet content (Aβ [1]; 0 h): 28% and 28 ± 9%
- random coil content (Aβ [1]; 0 h): 34 ± 6%
- random coil content (Aβ [1]; 12 h): 28 ± 1.5%
- β-sheet content (Aβ [1]; 48 h): 54% and 54 ± 4.5%
- lag time (Aβ [2]): 23 h
